Legend:
[1] = Preparation of single peptide injection preparations using injection solvent (Comparative Example 1); conditions: for Whether injection preparation could be prepared (in words): 2 mg to 20 mg peptide in 1 ml injection solvent; for Peptide concentration at which injection preparation could be prepared, Comparative Example 1 (injection solvent): injection solvent (water), room temperature
Experimental: Pharmaceutical water defined by the Japanese Pharmacopoeia was used as an injection solvent.
In order to prepare formulations containing one of the peptides shown in Table 1, each of the peptides shown in Table 1 were added to 1 ml of an injection solvent. The resultants were agitated at room temperature so as to dissolve the entire amounts of the peptides added, and thereby colorless and clear solutions of each peptide were obtained. Thereafter, the peptide solutions were sterilized via filtration (with the use of a 0.22-μm filter) to obtain injection preparations.
The amounts of peptides added varied within the range of 2 mg to 20 mg, and injection preparations were prepared at each concentration. […] For these peptides, peptide concentrations that enable preparation of injection preparations were investigated.

[2] = Combination peptide injection preparation using sodium carbonate/arginine solution (Example 6); type: physicochemical; parameters: key to Dissolution on successive addition, Example 6 (Na2CO3/Arg) (2 mg each) / Dissolution of further 2 mg of Peptide 2, Example 6 (Na2CO3/Arg): ◯: Dissolved; X: White Turbid; conditions: 2 mg each peptide added one after another to 1 ml sodium carbonate/arginine solvent
Experimental: (§1) In order to prepare an injection preparation containing combination of the peptides shown in Table 1, the 10 types of peptides shown in Table 1 were added in an amount of 2 mg each to 1 ml of the injection solvent containing sodium carbonate and arginine as used in Example 3. The addition of each peptide was conducted in the same manner as in Example 4.

[3] = Combination peptide injection preparation using sodium carbonate solution (Example 5); type: physicochemical; parameters: key to Dissolution on successive addition, Example 5 (Na2CO3) (2 mg each) / Dissolution of further 2 mg of Peptide 2, Example 5 (Na2CO3): ◯: Dissolved; X: White Turbid; conditions: 2 mg each peptide added one after another to 1 ml sodium carbonate solvent
Experimental: as §1, with “carbonate” for “carbonate and arginine”, “1.” for “3.”

[4] = Combination peptide injection preparation using arginine solution (Example 4); type: physicochemical; parameters: key to Dissolution on successive addition, Example 4-1 (Arg) (1 mg each) / Dissolution on successive addition, Example 4-2 (Arg) (2 mg each): ◯: Dissolved; X: White Turbid; conditions: for Dissolution on successive addition, Example 4-1 (Arg) (1 mg each): 1 mg each peptide added one after another to 1 ml arginine solvent
Experimental: In order to prepare an injection preparation containing combination of the peptides shown in Table 1, the 10 types of peptides shown in Table 1 were added in an amount of 1 mg each to 1 ml of the injection solvent containing arginine as used in Example 2. The entire amount of one peptide was dissolved upon addition thereof to obtain a colorless and clear solution, and another peptide was then added thereto.
Subsequently, preparation of another injection preparation containing combination of the peptides was attempted in the same manner as described above, except that the amount of each peptide added was changed to 2 mg. […] Thus, no other peptides were added thereafter.

[5] = Preparation of injection preparations using sodium carbonate/arginine solution (Example 3); type: physicochemical; conditions: for Peptide concentration at which injection preparation could be prepared, Example 3 (Na2CO3/Arg): 41 mg sodium carbonate decahydrate and 40 mg L-arginine in 1 ml injection solvent; for pH of injection preparation, Example 3 (Na2CO3/Arg): injection solvent containing sodium carbonate and arginine
Experimental: 41 mg of sodium carbonate decahydrate and 40 mg of L-arginine were dissolved in 1 ml of an injection solvent to obtain an injection solvent containing sodium carbonate and arginine.
In the case of Peptide 3, it was confirmed that the injection preparation could be obtained with the addition of 15 mg of peptide at the maximum. All the obtained injection preparations had pH levels within adequate range for injection (Table 2).

[6] = Stability of lyophilized formulation, peptide content in the vial by HPLC (Example 7); type: physicochemical; conditions: 25 degrees C., humidity 60%, relative to comparative solution peak area = 100%
Experimental: 107.7 g of L-arginine and 110.4 g of sodium carbonate hydrate were dissolved in 5,500 ml of an injection solvent. Peptide 1, Peptide 2, Peptide 3, and Peptide 4 were dissolved therein in amounts of 6.2 g, 7.5 g, 8.7 g, and 8.0 g, respectively. Thereafter, the total amount of the solution was adjusted to 7,000 ml with the addition of an injection solvent, and a combination peptide solution was obtained. […] Following lyophilization, the vial was fully stoppered and the aluminum cap seaming was conducted. Thus, a lyophilized formulation was produced.
Further, the results shown above were subjected to regression analysis, so as to predict stability 24 months later.

[7] = Preparation of single peptide injection preparations using sodium carbonate solution (Example 1); type: physicochemical; conditions: for Whether injection preparation could be prepared (in words): 5 mg to 20 mg peptide in 1 ml injection solvent containing sodium carbonate; for Peptide concentration at which injection preparation could be prepared, Example 1 (Na2CO3): 41 mg sodium carbonate decahydrate in 1 ml injection solvent, class symbol; for pH of injection preparation, Example 1 (Na2CO3): injection solvent containing sodium carbonate
Experimental: (§2) 41 mg of sodium carbonate decahydrate (Na2CO3.10H2O) was dissolved in 1 ml of an injection solvent to obtain an injection solvent containing sodium carbonate. In order to prepare formulations of the each peptide that was not dissolved in an injection solvent in Comparative Example 1, Peptides 1, 2, 4, 7, and 10 were separately added to 1 ml of injection solvents containing sodium carbonate.
In the case of Peptide 1, it was confirmed that the injection preparation could be obtained with the addition of 9 mg of peptide at the maximum. All the obtained injection preparations had pH levels within adequate range for injection (Table 2).

[8] = Preparation of single peptide injection preparations using arginine solution (Example 2); type: physicochemical; conditions: for Whether injection preparation could be prepared (in words): 5 mg to 20 mg peptide in 1 ml injection solvent containing arginine; for Peptide concentration at which injection preparation could be prepared, Example 2 (Arg): 40 mg L-arginine in 1 ml injection solvent, class symbol; for pH of injection preparation, Example 2 (Arg): injection solvent containing arginine
Experimental: as §2, with “40” for “41”, “L-arginine” for “sodium carbonate decahydrate (Na2CO3.10H2O)”, “arginine.” for “sodium carbonate.”, “of” for “of the”
In the case of Peptide 1, it was confirmed that the injection preparation could be obtained with the addition of 6 mg of peptide at the maximum. All the obtained injection preparations had pH levels within adequate range for injection (Table 2).

Row | Sequence | Whether injection preparation could be prepared (in words) [1] | Peptide concentration at which injection preparation could be prepared, Comparative Example 1 (injection solvent) ([1]; class symbol) | Dissolution on successive addition, Example 6 (Na2CO3/Arg) (2 mg each) [2] | Dissolution on successive addition, Example 5 (Na2CO3) (2 mg each) [3] | Dissolution on successive addition, Example 4-1 (Arg) (1 mg each) [4] | Peptide concentration at which injection preparation could be prepared, Example 3 (Na2CO3/Arg) ([5]; class symbol) | pH of injection preparation, Example 3 (Na2CO3/Arg) [5] | also measured
1 | EYCPGGNLP (EYCPGGNLF; T cell epitope) [Peptide 8] | possible to prepare the injection preparations regardless of the amounts of peptides added | ⊚ (20 mg/ml or more) | ◯ | ◯ | ◯ | ⊚ (20 mg/ml or more) | 9.80 | 
2 | KVYLRVRPLL (T cell epitope) [Peptide 3] | possible to prepare the injection preparations regardless of the amounts of peptides added | ⊚ (20 mg/ml or more) | ◯ | ◯ | ◯ |  |  | Peptide content in the vial, 0 months [6]: 103.7%; Peptide content in the vial, 1 month [6]: 103.4%; Peptide content in the vial, 3 months [6]: 102.7%; Peptide content in the vial, 6 months [6]: 100.1%; Dissolution on successive addition (in words), Example 4 ([4]; 2 mg each in 1 ml arginine solvent, added after Peptide 1 and Peptide 2): white turbidity; Dissolution on successive addition, Example 4-2 (Arg) (2 mg each) ([4]; 2 mg each peptide added one after another to 1 ml arginine solvent): X; Peptide concentration at which injection preparation could be prepared, Example 3 (Na2CO3/Arg) ([5]; numeric): 15 mg/mL; Maximum amount of peptide added that gave an injection preparation ([5]; in 1 ml injection solvent containing sodium carbonate and arginine): 15 mg
3 | RYCNLEGPPI (T cell epitope) [Peptide 5] | possible to prepare the injection preparations regardless of the amounts of peptides added | ⊚ (20 mg/ml or more) | ◯ | ◯ | ◯ | ⊚ (20 mg/ml or more) | 10.20 | 
4 | DYLNEWGSRF (T cell epitope) [Peptide 10] | not possible to prepare the injection preparations regardless of the amounts of peptides added | X (0.08 mg/ml or less) | ◯ | ◯ | ◯ | ⊚ (20 mg/ml or more) | 10.14 | Whether injection preparation could be prepared (in words) [7]: possible to prepare the injection preparations regardless of the amounts of peptides added; Peptide concentration at which injection preparation could be prepared, Example 1 (Na2CO3) [7]: ⊚ (20 mg/ml or more); pH of injection preparation, Example 1 (Na2CO3) [7]: 9.35; Whether injection preparation could be prepared (in words) [8]: possible to prepare the injection preparations regardless of the amounts of peptides added; Peptide concentration at which injection preparation could be prepared, Example 2 (Arg) [8]: ⊚ (20 mg/ml or more); pH of injection preparation, Example 2 (Arg) [8]: 9.87
5 | RFVPDGNRI (T cell epitope) [Peptide 6] | possible to prepare the injection preparations regardless of the amounts of peptides added | ⊚ (20 mg/ml or more) | ◯ | ◯ | ◯ | ⊚ (20 mg/ml or more) | 10.55 | 
6 | SYRNEIAYL (T cell epitope) [Peptide 7] | not possible to prepare the injection preparations regardless of the amounts of peptides added |  | ◯ | ◯ | ◯ | ⊚ (20 mg/ml or more) | 9.97 | Peptide concentration at which injection preparation could be prepared, Comparative Example 1 (injection solvent) ([1]; numeric): 0.5 mg/mL; Whether injection preparation could be prepared (in words) [7]: possible to prepare the injection preparations regardless of the amounts of peptides added; Peptide concentration at which injection preparation could be prepared, Example 1 (Na2CO3) [7]: ⊚ (20 mg/ml or more); pH of injection preparation, Example 1 (Na2CO3) [7]: 9.18; Whether injection preparation could be prepared (in words) [8]: possible to prepare the injection preparations regardless of the amounts of peptides added; Peptide concentration at which injection preparation could be prepared, Example 2 (Arg) [8]: ⊚ (20 mg/ml or more); pH of injection preparation, Example 2 (Arg) [8]: 9.68
7 | VYGIRLEHF (T cell epitope) [Peptide 9] | possible to prepare the injection preparations regardless of the amounts of peptides added | ⊚ (20 mg/ml or more) | ◯ | ◯ | ◯ | ⊚ (20 mg/ml or more) | 9.84 | 

— patent publication US20150359864A1, “PHARMACEUTICAL COMPOSITION CONTAINING PEPTIDES” (ONCOTHERAPY SCIENCE, INC., priority 2012, published 2015)
